# Test results from the supplement of paper PMC5998384.
# Experiments:
# HeLa Kyoto [1] = test: solubility in G1/S (NP-40 vs SDS abundance) (log2 ratio); higher = more soluble; settings: cell cycle stage: G1/S
# HeLa Kyoto [2] = test: melting temperature (median over replicates), in situ; higher = more thermally stable
# HeLa Kyoto [3] = test: solubility change mitosis vs G1/S (difference of NP-40 vs SDS log2 ratios) (log2 ratio difference); higher = more soluble in mitosis
# HeLa Kyoto [4] = test: thermal stability score vs G1/S (z-score of summed log2 fold changes over temperatures); higher = more thermally stable than in G1/S
# [5] = cell cycle stage: early G1 (4.5 h after nocodazole release)
# 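For melting temperature (median over replicates), in situ in this document: HeLa Kyoto cells synchronized by double thymidine or nocodazole block, proteins quantified by TMT10plex mass spectrometry, three independent biological replicates.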
# 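For solubility change mitosis vs G1/S (difference of NP-40 vs SDS log2 ratios) in this document: synchronized HeLa Kyoto cells (double thymidine block for G1/S, nocodazole release for mitosis), protein amounts in NP-40 versus SDS lysates quantified by mass spectrometry, three biological replicates.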
# 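For solubility in G1/S (NP-40 vs SDS abundance) in this document: HeLa Kyoto cells arrested at G1/S by double thymidine block, proteins quantified by TMT10plex mass spectrometry in mild NP-40 versus SDS extracts, three biological replicates.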
# 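For thermal stability score vs G1/S (z-score of summed log2 fold changes over temperatures) in this document: synchronized HeLa Kyoto cells, proteins quantified by TMT10plex mass spectrometry, three biological replicates, mitosis taken 0.5 h after nocodazole release, G1/S directly after double thymidine block.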
Substance,solubility in G1/S (log2) (HeLa Kyoto [1]),melting temperature (HeLa Kyoto [2]; cell cycle stage: G1/S) [°C],melting temperature (HeLa Kyoto [2]; cell cycle stage: mitosis) [°C],solubility change mitosis (log2) (HeLa Kyoto [3]),thermal stability score (HeLa Kyoto [4]; [5]),thermal stability score (HeLa Kyoto [4]; cell cycle stage: mitosis)
MASPPRHGPPGPASGDGPNLNNNNNNNNHSVRKCGYLRKQKHGHKRFFVLRGPGAGGDEATAGGGSAPQPPRLEYYESEKKWRSKAGAPKRVIALDCCLNINKRADAKHKYLIALYTKDEYFAVAAENEQEQEGWYRALTDLVSEGRAAAGDAPPAAAPAASCSASLPGALGGSAGAAGAEDSYGLVAPATAAYREVWQVNLKPKGLGQSKNLTGVYRLCLSARTIGFVKLNCEQPSVTLQLMNIRRCGHSDSFFFIEVGRSAVTGPGELWMQADDSVVAQNIHETILEAMKALKELFEFRPRSKSQSSGSSATHPISVPGARRHHHLVNLPPSQTGLVRRSRTDSLAATPPAAKCSSCRVRTASEGDGGAAAGAAAAGARPVSVAGSPLSPGPVRAPLSRSHTLSGGCGGRGSKVALLPAGGALQHSRSMSMPVAHSPPAATSPGSLSSSSGHGSGSYPPPPGPHPPLPHPLHHGPGQRPSSGSASASGSPSDPGFMSLDEYGSSPGDLRAFCSHRSNTPESIAETPPARDGGGGGEFYGYMTMDRPLSHCGRSYRRVSGDAAQDLDRGLRKRTYSLTTPARQRPVPQPSSASLDEYTLMRATFSGSAGRLCPSCPASSPKVAYHPYPEDYGDIEIGSHRSSSSNLGADDGYMPMTPGAALAGSGSGSCRSDDYMPMSPASVSAPKQILQPRAAAAAAAAVPSAGPAGPAPTSAAGRTFPASGGGYKASSPAESSPEDSGYMRMWCGSKLSMEHADGKLLPNGDYLNVSPSDAVTTGTPPDFFSAALHPGGEPLRGVPGCCYSSLPRSYKAPYTCGGDSDQYVLMSSPVGRILEEERLEPQATPGPSQAASAFGAGPTQPPHPVVPSPVRPSGGRPEGFLGQRGRAVRPTRLSLEGLPSLPSMHEYPLPPEPKSPGEYINIDFGEPGARLSPPAPPLLASAASSSSLLSASSPASSLGSGTPGTSSDSRQRSPLSDYMNLDFSSPKSPKPGAPSGHPVGSLDGLLSPEASSPYPPLPPRPSASPSSSLQPPPPPPAPGELYRLPPASAVATAQGPGAASSLSSDTGDNGDYTEMAFGVAATPPQPIAAPPKPEAARVASPTSGVKRLSLMEQVSGVEAFLQASQPPDPHRGAKVIRADPQGGRRRHSSETFSSTTTVTPVSPSFAHNPKRHNSASVENVSLRKSSEGGVGVGPGGGDEPPTSPRQLQPAPPLAPQGRPWTPGQPGGLVGCPGSGGSPMRRETSAGFQNGLNYIAIDVREEPGLPPQPQPPPPPLPQPGDKSSWGRTRSLGGLISAVGVGSTGGGCGGPGPGALPPANTYASIDFLSHHLKEATIVKE [IRS2],-0.000472,50.4,50.3,-0.0828,-0.748,0.717
MAEAGDAALSVAEWLRALHLEQYTGLFEQHGLVWATECQGLSDTRLMDMGMLLPGHRRRILAGLLRAHTSPAPAPRPTPRPVPMKRHIFRSPPVPATPPEPLPTTTEDEGLPAAPPIPPRRSCLPPTCFTTPSTAAPDPVLPPLPAKRHLAELSVPPVPPRTGPPRLLVSLPTKEEESLLPSLSSPPQPQSEEPLSTLPQGPPQPPSPPPCPPEIPPKPVRLFPEFDDSDYDEVPEEGPGAPARVMTKKEEPPPSRVPRAVRVASLLSEGEELSGDDQGDEEEDDHAYEGVPNGGWHTSSLSLSLPSTIAAPHPMDGPPGGSTPVTPVIKAGWLDKNPPQGSYIYQKRWVRLDTDHLRYFDSNKDAYSKRFISVACISHVAAIGDQKFEVITNNRTFAFRAESDVERKEWMQALQQAMAEQRARARLSSAYLLGVPGSEQPDRAGSLELRGFKNKLYVAVVGDKVQLYKNLEEYHLGIGITFIDMSVGNVKEVDRRSFDLTTPYRIFSFSADSELEKEQWLEAMQGAIAEALSTSEVAERIWAAAPNRFCADCGAPQPDWASINLCVVICKRCAGEHRGLGAGVSKVRSLKMDRKVWTETLIELFLQLGNGAGNRFWAANVPPSEALQPSSSPSTRRCHLEAKYREGKYRRYHPLFGNQEELDKALCAAVTTTDLAETQALLGCGAGINCFSGDPEAPTPLALAEQAGQTLQMEFLRNNRTTEVPRLDSMKPLEKHYSVVLPTVSHSGFLYKTASAGKLLQDRRAREEFSRRWCVLGDGVLSYFENERAVTPNGEIRASEIVCLAVPPPDTHGFEHTFEVYTEGERLYLFGLESAEQAHEWVKCIAKAFVPPLAEDLLARDFERLGRLPYKAGLSLQRAQEGWFSLSGSELRAVFPEGPCEEPLQLRKLQELSIQGDSENQVLVLVERRRTLYIQGERRLDFMGWLGAIQKAAASMGDTLSEQQLGDSDIPVIVYRCVDYITQCGLTSEGIYRKCGQTSKTQRLLESLRQDARSVHLKEGEQHVDDVSSALKRFLRDLPDGLFTRAQRLTWLEASEIEDEEEKVSRYRELLVRLPPVNRATVKALISHLYCVQCFSDTNQMNVHNLAIVFGPTLFQTDGQDYKAGRVVEDLINHYVVVFSVDEEELRKQREEITAIVKMRVAGTASGTQHAGDFICTVYLEEKKAETEQHIKVPASMTAEELTLEILDRRNVGIREKDYWTCFEVNEREEAERPLHFAEKVLPILHGLGTDSHLVVKKHQAMEAMLLYLASRVGDTKHGMMKFREDRSLLGLGLPSGGFHDRYFILNSSCLRLYKEVRSQRPWSGAPETSHRPEKEWPIKSLKVYLGVKKKLRPPTCWGFTVVHETEKHEKQQWYLCCDTQMELREWFATFLFVQHDGLVWPSEPSRVSRAVPEVRLGSVSLIPLRGSENEMRRSVAAFTADPLSLLRNV [ARAP1],-0.0593,48.7,49.1,-0.0622,0.748,0.922
MPAPEQASLVEEGQPQTRQEAASTGPGMEPETTATTILASVKEQELQFQRLTRELEVERQIVASQLERCRLGAESPSIASTSSTEKSFPWRSTDVPNTGVSKPRVSDAVQPNNYLIRTEPEQGTLYSPEQTSLHESEGSLGNSRSSTQMNSYSDSGYQEAGSFHNSQNVSKADNRQQHSFIGSTNNHVVRNSRAEGQTLVQPSVANRAMRRVSSVPSRAQSPSYVISTGVSPSRGSLRTSLGSGFGSPSVTDPRPLNPSAYSSTTLPAARAASPYSQRPASPTAIRRIGSVTSRQTSNPNGPTPQYQTTARVGSPLTLTDAQTRVASPSQGQVGSSSPKRSGMTAVPQHLGPSLQRTVHDMEQFGQQQYDIYERMVPPRPDSLTGLRSSYASQHSQLGQDLRSAVSPDLHITPIYEGRTYYSPVYRSPNHGTVELQGSQTALYRTGSVGIGNLQRTSSQRSTLTYQRNNYALNTTATYAEPYRPIQYRVQECNYNRLQHAVPADDGTTRSPSIDSIQKDPREFAWRDPELPEVIHMLQHQFPSVQANAAAYLQHLCFGDNKVKMEVCRLGGIKHLVDLLDHRVLEVQKNACGALRNLVFGKSTDENKIAMKNVGGIPALLRLLRKSIDAEVRELVTGVLWNLSSCDAVKMTIIRDALSTLTNTVIVPHSGWNNSSFDDDHKIKFQTSLVLRNTTGCLRNLSSAGEEARKQMRSCEGLVDSLLYVIHTCVNTSDYDSKTVENCVCTLRNLSYRLELEVPQARLLGLNELDDLLGKESPSKDSEPSCWGKKKKKKKRTPQEDQWDGVGPIPGLSKSPKGVEMLWHPSVVKPYLTLLAESSNPATLEGSAGSLQNLSAGNWKFAAYIRAAVRKEKGLPILVELLRMDNDRVVSSVATALRNMALDVRNKELIGKYAMRDLVNRLPGGNGPSVLSDETMAAICCALHEVTSKNMENAKALADSGGIEKLVNITKGRGDRSSLKVVKAAAQVLNTLWQYRDLRSIYKKDGWNQNHFITPVSTLERDRFKSHPSLSTTNQQMSPIIQSVGSTSSSPALLGIRDPRSEYDRTQPPMQYYNSQGDATHKGLYPGSSKPSPIYISSYSSPAREQNRRLQHQQLYYSQDDSNRKNFDAYRLYLQSPHSYEDPYFDDRVHFPASTDYSTQYGLKSTTNYVDFYSTKRPSYRAEQYPGSPDSWV [PKP4],-0.319,50.6,,0.0763,-0.193,-0.925
MELRVGNRYRLGRKIGSGSFGDIYLGTDIAAGEEVAIKLECVKTKHPQLHIESKIYKMMQGGVGIPTIRWCGAEGDYNVMVMELLGPSLEDLFNFCSRKFSLKTVLLLADQMISRIEYIHSKNFIHRDVKPDNFLMGLGKKGNLVYIIDFGLAKKYRDARTHQHIPYRENKNLTGTARYASINTHLGIEQSRRDDLESLGYVLMYFNLGSLPWQGLKAATKRQKYERISEKKMSTPIEVLCKGYPSEFATYLNFCRSLRFDDKPDYSYLRQLFRNLFHRQGFSYDYVFDWNMLKFGASRAADDAERERRDREERLRHSRNPATRGLPSTASGRLRGTQEVAPPTPLTPTSHTANTSPRPVSGMERERKVSMRLHRGAPVNISSSDLTGRQDTSRMSTSQIPGRVASSGLQSVVHR [CSNK1D],-0.067,50.1,50.9,-0.0573,-0.73,-0.371
FAM208A,-0.847,49.7,50.2,0.524,0.605,0.529
MERAESSSTEPAKAIKPIDRKSVHQICSGQVVLSLSTAVKELVENSLDAGATNIDLKLKDYGVDLIEVSDNGCGVEEENFEGLTLKHHTSKIQEFADLTQVETFGFRGEALSSLCALSDVTISTCHASAKVGTRLMFDHNGKIIQKTPYPRPRGTTVSVQQLFSTLPVRHKEFQRNIKKEYAKMVQVLHAYCIISAGIRVSCTNQLGQGKRQPVVCTGGSPSIKENIGSVFGQKQLQSLIPFVQLPPSDSVCEEYGLSCSDALHNLFYISGFISQCTHGVGRSSTDRQFFFINRRPCDPAKVCRLVNEVYHMYNRHQYPFVVLNISVDSECVDINVTPDKRQILLQEEKLLLAVLKTSLIGMFDSDVNKLNVSQQPLLDVEGNLIKMHAADLEKPMVEKQDQSPSLRTGEEKKDVSISRLREAFSLRHTTENKPHSPKTPEPRRSPLGQKRGMLSSSTSGAISDKGVLRPQKEAVSSSHGPSDPTDRAEVEKDSGHGSTSVDSEGFSIPDTGSHCSSEYAASSPGDRGSQEHVDSQEKAPKTDDSFSDVDCHSNQEDTGCKFRVLPQPTNLATPNTKRFKKEEILSSSDICQKLVNTQDMSASQVDVAVKINKKVVPLDFSMSSLAKRIKQLHHEAQQSEGEQNYRKFRAKICPGENQAAEDELRKEISKTMFAEMEIIGQFNLGFIITKLNEDIFIVDQHATDEKYNFEMLQQHTVLQGQRLIAPQTLNLTAVNEAVLIENLEIFRKNGFDFVIDENAPVTERAKLISLPTSKNWTFGPQDVDELIFMLSDSPGVMCRPSRVKQMFASRACRKSVMIGTALNTSEMKKLITHMGEMDHPWNCPHGRPTMRHIANLGVISQN [PMS2],-0.0345,48.3,49.7,-0.029,1.02,1.74
MSGDHLHNDSQIEADFRLNDSHKHKDKHKDREHRHKEHKKEKDREKSKHSNSEHKDSEKKHKEKEKTKHKDGSSEKHKDKHKDRDKEKRKEEKVRASGDAKIKKEKENGFSSPPQIKDEPEDDGYFVPPKEDIKPLKRPRDEDDADYKPKKIKTEDTKKEKKRKLEEEEDGKLKKPKNKDKDKKVPEPDNKKKKPKKEEEQKWKWWEEERYPEGIKWKFLEHKGPVFAPPYEPLPENVKFYYDGKVMKLSPKAEEVATFFAKMLDHEYTTKEIFRKNFFKDWRKEMTNEEKNIITNLSKCDFTQMSQYFKAQTEARKQMSKEEKLKIKEENEKLLKEYGFCIMDNHKERIANFKIEPPGLFRGRGNHPKMGMLKRRIMPEDIIINCSKDAKVPSPPPGHKWKEVRHDNKVTWLVSWTENIQGSIKYIMLNPSSRIKGEKDWQKYETARRLKKCVDKIRNQYREDWKSKEMKVRQRAVALYFIDKLALRAGNEKEEGETADTVGCCSLRVEHINLHPELDGQEYVVEFDFLGKDSIRYYNKVPVEKRVFKNLQLFMENKQPEDDLFDRLNTGILNKHLQDLMEGLTAKVFRTYNASITLQQQLKELTAPDENIPAKILSYNRANRAVAILCNHQRAPPKTFEKSMMNLQTKIDAKKEQLADARRDLKSAKADAKVMKDAKTKKVVESKKKAVQRLEEQLMKLEVQATDREENKQIALGTSKLNYLDPRITVAWCKKWGVPIEKIYNKTQREKFAWAIDMADEDYEF [TOP1],-1.22,46.9,49.1,0.531,7.82,12
LRP6,0.027,52.7,53.1,0.112,-4.02,-2.07
